The record followed here is IntAct's records for PubMed 14992724.

Sequences and labels used below:
B1: Meiosis-specific protein SPO11 (Saccharomyces cerevisiae), P23179 (parent)
chain: MALEGLRKKYKTRQELVKALTPKRRSIHLNSNGHSNGTPCSNADVLAHIKHFLSLAANSLEQHQQPISIVFQNKKKKGDTSSPDIHTTLDFPLNGPHLCTHQFKLKRCAILLNLLKVVMEKLPLGKNTTVRDIFYSNVELFQRQANVVQWLDVIRFNFKLSPRKSLNIIPAQKGLVYSPFPIDIYDNILTCENEPKMQKQTIFPGKPCLIPFFQDDAVIKLGTTSMCNIVIVEKEAVFTKLVNNYHKLSTNTMLITGKGFPDFLTRLFLKKLEQYCSKLISDCSIFTDADPYGISIALNYTHSNERNAYICTMANYKGIRITQVLAQNNEVHNKSIQLLSLNQRDYSLAKNLIASLTANSWDIATSPLKNVIIECQREIFFQKKAEMNEIDARIFEYK
partner: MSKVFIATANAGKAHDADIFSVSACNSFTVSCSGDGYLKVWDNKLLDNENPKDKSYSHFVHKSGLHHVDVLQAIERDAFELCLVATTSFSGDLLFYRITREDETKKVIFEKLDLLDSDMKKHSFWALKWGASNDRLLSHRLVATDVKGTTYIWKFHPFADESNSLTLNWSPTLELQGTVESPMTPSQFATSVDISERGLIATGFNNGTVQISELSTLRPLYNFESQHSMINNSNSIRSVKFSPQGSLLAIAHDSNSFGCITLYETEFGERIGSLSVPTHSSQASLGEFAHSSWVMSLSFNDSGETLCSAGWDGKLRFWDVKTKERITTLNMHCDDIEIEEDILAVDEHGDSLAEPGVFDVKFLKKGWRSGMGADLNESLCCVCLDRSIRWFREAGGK

In the test the parent is B1. Particulars: with ski8_yeast SKI8, Q02793.
Turning to MALEGLRKKYKTRQELVKALTPKRRSIHLNSNGHSNGTPCSNADVLAHIKHFLSLAANSLEQHQQPISIVFQNKKKKGDTSSPDIHTTLDFPLNGPHLCTHQFKLKRCAILLNLLKVVMEKLPLGKNTTVRDIFYSNVELFQRQANVVQWLDVIRFNFKLSPRKSLNIIPAQKGLVYSPFPIDIYDNILTCENEPKMQKQTIFPGKPCLIPFFQDDAVIKLGTTSMCNIVIVEKEAVFTKLVNNYHKLSTNTMLITGKGFPDFLTRLFLKKLEQYCSKLISDCSIFTDADPYGISIALNYTHSNERNAYICTMANYKGIRITQVLAQNNEVHNKSIQLLSLNQRDYSLAKNLIASLTANSWDIATSPLKNVIIECQAAIFFQKKAEMNEIDARIFEYK [R377A;E378A], the “effect of a mutation on the interaction” value was “disrupting interaction strength”. MALEGLRKKYKTRQELVKALTPKRRSIHLNSNGHSNGTPCSNADVLAHIKHFLSLAANSLEQHQQPISIVFQNKKKKGDTSSPDIHTTLDFPLNGPHLCTHQFKLKRCAILLNLLKVVMEKLPLGKNTTVRDIFYSNVELFQRQANVVQWLDVIRFNFKLSPRKSLNIIPAQKGLVYSPFPIDIYDNILTCENEPKMQKQTIFPGKPCLIPFFQDDAVIKLGTTSMCNIVIVEKEAVFTKLVNNYHKLSTNTMLITGKGFPDFLTRLFLKKLEQYCSKLISDCSIFTDADPYGISIALNYTHSNERNAYICTMANYKGIRITQVLAQNNEVHNKSIQLLSLNQRDYSLAKNLIASLTANSWDIATSPLKNVIIECAREIFFQKKAEMNEIDARIFEYK [Q376A]: the “effect of a mutation on the interaction” value is “disrupting interaction strength”.
